Results published in article PMC12072009, “Catalytic Efficiency Improvement in Cellobiohydrolase I by Cross-Species Domain Exchange Engineering” (International Journal of Molecular Sciences, 2025).

Key:
Conditions in all cases: 50 mM citric acid sodium citrate buffer, pH 4.8, 50 °C
[1] = test system: T1, TC-CBH; experiment: fluorescence of released methylumbelliferone (ex […], em […] nm), Michaelis-Menten nonlinear fit; type: biochemical, Trichoderma reesei; Thermochaetoides thermophila
T1 construct: gene cbh1; single-chain fusion: T. reesei CBHI with its CBM replaced by that of C. thermophilum CBHI (GenBank AM711862.1); secreted from T. reesei Tu-6 delta-ku70

[2] = test system: T2, CT-CBH; experiment: as above; type: biochemical, Thermochaetoides thermophila; Trichoderma reesei
T2 construct: gene cbh1; single-chain fusion: C. thermophilum CBHI (GenBank AM711862.1) with its CBM replaced by that of T. reesei CBHI; secreted from T. reesei Tu-6 delta-ku70

[3] = substrate: Cc1cc(=O)oc2cc(O[C@@H]3O[C@H](CO)[C@@H](O[C@@H]4O[C@H](CO)[C@@H](O)[C@H](O)[C@H]4O)[C@H](O)[C@H]3O)ccc12; experiment: purified protein; type: biochemical, Trichoderma reesei
[4] = substrate: Cc1cc(=O)oc2cc(O[C@@H]3O[C@H](CO)[C@@H](O[C@@H]4O[C@H](CO)[C@@H](O)[C@H](O)[C@H]4O)[C@H](O)[C@H]3O)ccc12; experiment: purified protein; type: biochemical, Thermochaetoides thermophila

## Cc1cc(=O)oc2cc(O[C@@H]3O[C@H](CO)[C@@H](O[C@@H]4O[C@H](CO)[C@@H](O)[C@H](O)[C@H]4O)[C@H](O)[C@H]3O)ccc12 [MUC]
[1]
  Km: 1200 µM
[2]
  Km: 700 µM

B1: T-CBH (Trichoderma reesei CBHI) (Trichoderma reesei QM6a) (protein)
chain: QSACTLQSETHPPLTWQKCSSGGTCTQQTGSVVIDANWRWTHATNSSTNCYDGNTWSSTLCPDNETCAKNCCLDGAAYASTYGVTTSGNSLSIGFVTQSAQKNVGARLYLMASDTTYQEFTLLGNEFSFDVDVSQLPCGLNGALYFVSMDADGGVSKYPTNTAGAKYGTGYCDSQCPRDLKFINGQANVEGWEPSSNNANTGIGGHGSCCSEMDIWEANSISEALTPHPCTTVGQEICEGDGCGGTYSDNRYGGTCDPDGCDWNPYRLGNTSFYGPGSSFTLDTTKKLTVVTQFETSGAINRYYVQNGVTFQQPNAELGSYSGNELNDDYCTAEEAEFGGSSFSDKGGLTQFKKATSGGMVLVMSLWDDYYANMLWLDSTYPTNETSSTPGAVRGSCSTSSGVPAQVESQSPNAKVTFSNIKFGPIGSTGNPSGGNPPGGNPPGTTTTRRPATTTGSSPGPTQSHYGQCGGIGYSGPTVCASGTTCQVLNPYYSQCL
notes: full length: catalytic domain, linker, CBM; secreted from T. reesei Tu-6 delta-ku70 (cDNA1 promoter); no tag stated; concentrated by 30 kDa ultrafiltration
[3]
  Km: 1300 µM
  kcat: 1.29 s⁻¹
  kcat/Km: 1030 M⁻¹ s⁻¹

B2: C-CBH (Chaetomium thermophilum CBHI) (Thermochaetoides thermophila) (protein)
chain: QQACSLTAENHPSLTWKRCTSGGSCSTVNGAVTIDANWRWTHTVSGSTNCYTGNQWDTSLCTDGKSCAQTCCVDGADYSSTYGITTSGDSLNLKFVTKHQYGTNVGSRVYLMENDTKYQMFELLGNEFTFDVDVSNLGCGLNGALYFVSMDADGGMSKYSGNKAGAKYGTGYCDAQCPRDLKFINGEANVGNWTPSTNDANAGFGRYGSCCSEMDVWEANNMATAFTPHPCTTVGQSRCEADTCGGTYSSDRYAGVCDPDGCDFNAYRQGDKTFYGKGMTVDTNKKMTVVTQFHKNSAGVLSEIKRFYVQDGKIIANAESKIPGNPGNSITQEYCDAQKVAFSNTDDFNRKGGMAQMSKALAGPMVLVMSVWDDHYANMLWLDSTYPIDQAGAPGAERGACPTTSGVPAEIEAQVPNSNVIFSNIRFGPIGSTVPGLDGSNPGNPTTTVVPPASTSTSRPTSSTSSPVSTPTGQPGGCTTQKWGQCGGIGYTGCTNCVAGTTCTQLNPWYSQCL
notes: full length: catalytic domain, linker, CBM; secreted from T. reesei Tu-6 delta-ku70 (common signal peptide for all four constructs, cDNA1 promoter); no tag stated; concentrated by 30 kDa ultrafiltration
[4]
  Km: 1100 µM
  kcat: 1.56 s⁻¹
  kcat/Km: 1480 M⁻¹ s⁻¹
